Experimental data taken from patent publication US20260098059A1 (ENDOMET BIOSCIENCES, published 2026).
Where “and” joins values, the source holds several entries; their conditions need not be identical. Identical values can stand only once. Bridges are numbered along the chain shown (N, C = ends). Where no end group is shown, it is not given here. [ ]: non-standard residue; d: D form. The star is where a group is joined. NMeW = CN[C@@H](Cc1c[nH]c2ccccc12)C(=O)O; Stearoyl = CCCCCCCCCCCCCCCCCC(=O)*; Chg = N[C@H](C(=O)O)C1CCCCC1; αMeV = CC(C)[C@](C)(N)C(=O)O; αMeS = C[C@](N)(CO)C(=O)O; NMeA = CN[C@@H](C)C(=O)O

T1: β-catenin (UniProt P35222 134-665, limits assumed, biotinylated in the SPR and plate assays)
T1 construct: also called beta catenin; biotinylated β-catenin
T1 sequence (looked up): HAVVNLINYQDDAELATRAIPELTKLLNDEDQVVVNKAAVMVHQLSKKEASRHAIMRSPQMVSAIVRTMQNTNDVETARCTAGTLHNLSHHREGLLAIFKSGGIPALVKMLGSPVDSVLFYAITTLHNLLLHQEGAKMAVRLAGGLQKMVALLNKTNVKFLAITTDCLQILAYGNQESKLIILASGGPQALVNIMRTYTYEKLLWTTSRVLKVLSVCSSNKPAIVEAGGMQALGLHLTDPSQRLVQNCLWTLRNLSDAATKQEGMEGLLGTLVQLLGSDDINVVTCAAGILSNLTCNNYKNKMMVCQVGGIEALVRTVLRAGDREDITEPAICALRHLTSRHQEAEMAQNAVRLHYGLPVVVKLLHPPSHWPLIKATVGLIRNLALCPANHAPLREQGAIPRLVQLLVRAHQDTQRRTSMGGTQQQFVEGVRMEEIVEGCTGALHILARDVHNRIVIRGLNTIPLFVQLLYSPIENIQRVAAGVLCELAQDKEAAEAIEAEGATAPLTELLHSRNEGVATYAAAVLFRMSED


Tests used:
[1] = target: T1, β-catenin; test: competitive FP
Description: Fluorescence polarization (FP) is another method used to analyze protein-ligand interactions. This methodology measures the change in fluorescence light emitted by a labelled compound free vs. conjugated to another compound in solution. Upon binding of the fluorescent molecule to a complex, polarization increases because of limited rotation of the fluorescent tracer. Competitive FP is often utilized in drug screens as it is formatted for high throughput screens in a plate format. This immunoassay is performed by introducing a non-conjugated drug to compete for binding to the labelled competitor-ligand complex, leading to a reduction in polarization. […] Exemplary methodology is described in Example 13. Data were analyzed and plotted in Microsoft Excel (Microsoft, Redmond, WA).
Varying concentrations of β-catenin inhibitor candidate (SEQ ID NO: 404) were then added in a series of serial dilutions from 10 nM to 30 uM of inhibitor in different wells of the plate. The fluorescence polarization was read by Infinite M1000 (Tecan, Baldwin Park CA) at excitation wavelength of 470 nm and measured at emission wavelength of 520 nm. […] The experiments were performed three times and data were analyzed and plotted in Microsoft Excel (Microsoft, Redmond, WA).

[2] = target: T1, β-catenin; test: cell-based or functional assay

Row | Kd [1] | Wnt Reporter EC50 [2] | Binder
1 | > 400 nM and ≤ 1000 nM | – | Ac-W[NMeA]QKILDEH[Chg]EDVWK-NH2 (lactam 11-15, 4-8 (inferred)) [SEQ ID NO: 464]
2 | ≤ 400 nM | – | WXQKILNDHGQRVW (HELM PEPTIDE1{[ac].W.[Aib].Q.K.I.L.N.D.H.[O=C([C@@H](N[*:1])C1CCCCC1)[*:2]].Q.R.V.W.[am]}$PEPTIDE1,PEPTIDE1,5:R3-9:R3$$$V2.0; SMILES CC[C@H](C)[C@@H]1NC(=O)[C@@H](NC(=O)[C@H](CCC(N)=O)NC(=O)C(C)(C)NC(=O)[C@H](Cc2c[nH]c3ccccc23)NC(C)=O)CCCCNC(=O)C[C@@H](C(=O)N[C@@H](Cc2c[nH]cn2)C(=O)N[C@H](C(=O)N[C@@H](CCC(N)=O)C(=O)N[C@@H](CCCNC(=N)N)C(=O)N[C@H](C(=O)N[C@@H](Cc2c[nH]c3ccccc23)C(N)=O)C(C)C)C2CCCCC2)NC(=O)[C@H](CC(N)=O)NC(=O)[C@H](CC(C)C)NC1=O) [SEQ ID NO: 455]
3 | > 400 nM and ≤ 1000 nM | – | WAESILKEHVQRVWG (HELM PEPTIDE1{[ac].W.[meA].E.S.I.L.K.E.H.V.Q.R.V.W.G.[am]}$PEPTIDE1,PEPTIDE1,4:R3-8:R3$$$V2.0; SMILES CC[C@H](C)[C@@H]1NC(=O)[C@H](CO)NC(=O)[C@@H](NC(=O)[C@H](C)N(C)C(=O)[C@H](Cc2c[nH]c3ccccc23)NC(C)=O)CCC(=O)NCCCC[C@@H](C(=O)N[C@@H](CCC(=O)O)C(=O)N[C@@H](Cc2c[nH]cn2)C(=O)N[C@H](C(=O)N[C@@H](CCC(N)=O)C(=O)N[C@@H](CCCNC(=N)N)C(=O)N[C@H](C(=O)N[C@@H](Cc2c[nH]c3ccccc23)C(=O)NCC(N)=O)C(C)C)C(C)C)NC(=O)[C@H](CC(C)C)NC1=O) [SEQ ID NO: 450]
4 | ≤ 400 nM | – | WAQKILDEHGQRVW (HELM PEPTIDE1{[ac].W.[meA].Q.K.I.L.D.E.H.[O=C([C@@H](N[*:1])C1CCCCC1)[*:2]].Q.R.V.W.[am]}$PEPTIDE1,PEPTIDE1,5:R3-9:R3$$$V2.0; SMILES CC[C@H](C)[C@@H]1NC(=O)[C@@H](NC(=O)[C@H](CCC(N)=O)NC(=O)[C@H](C)N(C)C(=O)[C@H](Cc2c[nH]c3ccccc23)NC(C)=O)CCCCNC(=O)CC[C@@H](C(=O)N[C@@H](Cc2c[nH]cn2)C(=O)N[C@H](C(=O)N[C@@H](CCC(N)=O)C(=O)N[C@@H](CCCNC(=N)N)C(=O)N[C@H](C(=O)N[C@@H](Cc2c[nH]c3ccccc23)C(N)=O)C(C)C)C2CCCCC2)NC(=O)[C@H](CC(=O)O)NC(=O)[C@H](CC(C)C)NC1=O) [SEQ ID NO: 446]
5 | ≤ 400 nM | – | [NMeA]QKILNEH[Chg]QRVWG-NH2 (lactam 3-7; not fully specified (N-terminus); printed as H23C11C(O)NH-NMeA-QK*ILNE*H-Chg-QRVWG-NH2) [SEQ ID NO: 434]
6 | > 400 nM and ≤ 1000 nM | – | Ac-W[NMeA]QKILNDH[Chg]QAVW-NH2 (lactam 4-8) [SEQ ID NO: 458]

Second part, the binder before the results:

Row | Binder | Kd [1] | Wnt Reporter EC50 [2]
7 | WFLISFW (HELM PEPTIDE1{[meW].F.L.I.S.F.W.[am]}$$$$V2.0; SMILES CC[C@H](C)[C@H](NC(=O)[C@H](CC(C)C)NC(=O)[C@H](Cc1ccccc1)NC(=O)[C@H](Cc1c[nH]c2ccccc12)NC)C(=O)N[C@@H](CO)C(=O)N[C@@H](Cc1ccccc1)C(=O)N[C@@H](Cc1c[nH]c2ccccc12)C(N)=O) [SEQ ID NO: 102] | ≤ 400 nM | > 15000 nM and ≤ 22500 nM
8 | H-MWFLISSW-OH [SEQ ID NO: 96] | > 10000 nM and ≤ 30000 nM | > 7500 nM and ≤ 15000 nM
9 | MWFLICFW (HELM PEPTIDE1{[ac].M.W.F.L.I.C.F.W.[O=C(O)CCCN[*:1]]}$$$$V2.0; SMILES CC[C@H](C)[C@H](NC(=O)[C@H](CC(C)C)NC(=O)[C@H](Cc1ccccc1)NC(=O)[C@H](Cc1c[nH]c2ccccc12)NC(=O)[C@H](CCSC)NC(C)=O)C(=O)N[C@@H](CS)C(=O)N[C@@H](Cc1ccccc1)C(=O)N[C@@H](Cc1c[nH]c2ccccc12)C(=O)NCCCC(=O)O) [SEQ ID NO: 197] | > 400 nM and ≤ 1000 nM | ≤ 7500 nM
10 | Stearoyl-GW[NMeW]ESILDEHVQRVWG-OH [SEQ ID NO: 2] | ≤ 400 nM | –
11 | AQKILNEHGQRVWG (HELM PEPTIDE1{[ac].[meA].Q.K.I.L.N.E.H.[O=C([C@@H](N[*:1])C1CCCCC1)[*:2]].Q.R.V.W.G.[am]}$PEPTIDE1,PEPTIDE1,4:R3-8:R3$$$V2.0; SMILES CC[C@H](C)[C@@H]1NC(=O)[C@@H](NC(=O)[C@H](CCC(N)=O)NC(=O)[C@H](C)N(C)C(C)=O)CCCCNC(=O)CC[C@@H](C(=O)N[C@@H](Cc2c[nH]cn2)C(=O)N[C@H](C(=O)N[C@@H](CCC(N)=O)C(=O)N[C@@H](CCCNC(=N)N)C(=O)N[C@H](C(=O)N[C@@H](Cc2c[nH]c3ccccc23)C(=O)NCC(N)=O)C(C)C)C2CCCCC2)NC(=O)[C@H](CC(N)=O)NC(=O)[C@H](CC(C)C)NC1=O) [SEQ ID NO: 433] | > 400 nM and ≤ 1000 nM | –
12 | RRWPQKILDEHVRRVWR (HELM PEPTIDE1{[ac].R.R.W.P.Q.K.I.L.D.E.H.V.R.R.V.W.R.[am]}$PEPTIDE1,PEPTIDE1,7:R3-11:R3$$$V2.0; SMILES CC[C@H](C)[C@@H]1NC(=O)[C@@H](NC(=O)[C@H](CCC(N)=O)NC(=O)[C@@H]2CCCN2C(=O)[C@H](Cc2c[nH]c3ccccc23)NC(=O)[C@H](CCCNC(=N)N)NC(=O)[C@H](CCCNC(=N)N)NC(C)=O)CCCCNC(=O)CC[C@@H](C(=O)N[C@@H](Cc2c[nH]cn2)C(=O)N[C@H](C(=O)N[C@@H](CCCNC(=N)N)C(=O)N[C@@H](CCCNC(=N)N)C(=O)N[C@H](C(=O)N[C@@H](Cc2c[nH]c3ccccc23)C(=O)N[C@@H](CCCNC(=N)N)C(N)=O)C(C)C)C(C)C)NC(=O)[C@H](CC(=O)O)NC(=O)[C@H](CC(C)C)NC1=O) [SEQ ID NO: 429] | > 400 nM and ≤ 1000 nM | –
13 | MMVQSLFVPPVK (not fully specified; cyclo-glutaryl-*MM-NMeNva-QSLF-NMeNva-PP-NMeNva-K*-CONH2) [SEQ ID NO: 3] | > 10000 nM and ≤ 30000 nM | –
14 | WWESILDEHVQRVWG (HELM PEPTIDE1{W.[meW].E.S.I.L.D.E.H.V.Q.R.V.W.G.[am]}$$$$V2.0; SMILES CC[C@H](C)[C@H](NC(=O)[C@H](CO)NC(=O)[C@H](CCC(=O)O)NC(=O)[C@H](Cc1c[nH]c2ccccc12)N(C)C(=O)[C@@H](N)Cc1c[nH]c2ccccc12)C(=O)N[C@@H](CC(C)C)C(=O)N[C@@H](CC(=O)O)C(=O)N[C@@H](CCC(=O)O)C(=O)N[C@@H](Cc1c[nH]cn1)C(=O)N[C@H](C(=O)N[C@@H](CCC(N)=O)C(=O)N[C@@H](CCCNC(=N)N)C(=O)N[C@H](C(=O)N[C@@H](Cc1c[nH]c2ccccc12)C(=O)NCC(N)=O)C(C)C)C(C)C) [SEQ ID NO: 36] | ≤ 400 nM | > 30000 nM
15 | H-MWESILDEH[αMeV]QRVWG-NH2 [SEQ ID NO: 34] | ≤ 400 nM | > 30000 nM
16 | H-MWE[αMeS]ILDEHVQRVWG-NH2 [SEQ ID NO: 35] | ≤ 400 nM | > 30000 nM
